Assay results: patent WO2019016784A1 (dated 2019)

B1: aNCL-CDR1 VHH (VHH)
VHH: QVQLQESGGGLVQPGGSLRLSCAASPQRRSARLSAWFRQAPGKEREFVARIYWSSGNTYYADSVKGRFAISRDIAKNTVDLTMNNLEPEDTAVYYCAARDGIPTSRSVESYNYWGQGTQVTVSS
notes: The entry is expected to hold leader peptide, His tag and HA tag like the others; also called aNCL-CDRl; a-NCL-CDRl VHH
B2: aNCL-CDR3-L VHH (VHH)
VHH: QVQLQESGGGLVQPGGSLRLSCAASGRTFSDHSGYTYTIGWFRQAPGKEREFVARIYWSSGNTYYADSVKGRFAISRDIAKNTVDLTMNNLEPEDTAVYYCAASGGGSPQRRSARLSASGGGSWGQGTQVTVSS
notes: The entry holds leader peptide, His tag and HA tag; also called CDR3-grafted VHH with SGGGS linkers
B3: aNCL-CDR1-L VHH (VHH)
VHH: QVQLQESGGGLVQPGGSLRLSCAASSGGGSPQRRSARLSASGGGSWFRQAPGKEREFVARIYWSSGNTYYADSVKGRFAISRDIAKNTVDLTMNNLEPEDTAVYYCAARDGIPTSRSVESYNYWGQGTQVTVSS
notes: The entry holds leader peptide, His tag and HA tag; also called aNCL-CDRl-L; CDR1-grafted VHH with SGGGS linkers
B4: aNCL-CDR3 VHH (VHH)
VHH: QVQLQESGGGLVQPGGSLRLSCAASGRTFSDHSGYTYTIGWFRQAPGKEREFVARIYWSSGNTYYADSVKGRFAISRDIAKNTVDLTMNNLEPEDTAVYYCAAPQRRSARLSAWGQGTQVTVSS
notes: The entry holds leader peptide, His tag and HA tag; also called CDR3-grafted VHH; anti-nucleolin VHH

Assays:
human recombinant TNF-a = target: T1, human recombinant TNF-a (human, UniProt P01375 77-233); test: ELISA, 200 ng human TNF-a coated, 100 pmol VHH, anti-HA-peroxidase detection
T1 construct: Coated at 200 ng per well in the ELISA; also called human TNF-a
T1 sequence (P01375 77-233 limits assumed): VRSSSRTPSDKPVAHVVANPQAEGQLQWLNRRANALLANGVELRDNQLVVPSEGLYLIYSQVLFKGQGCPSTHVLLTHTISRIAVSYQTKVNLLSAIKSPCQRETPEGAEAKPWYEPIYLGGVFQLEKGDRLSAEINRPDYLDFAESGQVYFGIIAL

[1] = target: T2, human recombinant nucleolin (human, UniProt P19338 1-710, limits assumed); test: ELISA, 100 ng human nucleolin coated, 100 pmol VHH, anti-HA-peroxidase detection
T2 construct: also called human nucleolin
T2 sequence (P19338 whole entry, form in doubt): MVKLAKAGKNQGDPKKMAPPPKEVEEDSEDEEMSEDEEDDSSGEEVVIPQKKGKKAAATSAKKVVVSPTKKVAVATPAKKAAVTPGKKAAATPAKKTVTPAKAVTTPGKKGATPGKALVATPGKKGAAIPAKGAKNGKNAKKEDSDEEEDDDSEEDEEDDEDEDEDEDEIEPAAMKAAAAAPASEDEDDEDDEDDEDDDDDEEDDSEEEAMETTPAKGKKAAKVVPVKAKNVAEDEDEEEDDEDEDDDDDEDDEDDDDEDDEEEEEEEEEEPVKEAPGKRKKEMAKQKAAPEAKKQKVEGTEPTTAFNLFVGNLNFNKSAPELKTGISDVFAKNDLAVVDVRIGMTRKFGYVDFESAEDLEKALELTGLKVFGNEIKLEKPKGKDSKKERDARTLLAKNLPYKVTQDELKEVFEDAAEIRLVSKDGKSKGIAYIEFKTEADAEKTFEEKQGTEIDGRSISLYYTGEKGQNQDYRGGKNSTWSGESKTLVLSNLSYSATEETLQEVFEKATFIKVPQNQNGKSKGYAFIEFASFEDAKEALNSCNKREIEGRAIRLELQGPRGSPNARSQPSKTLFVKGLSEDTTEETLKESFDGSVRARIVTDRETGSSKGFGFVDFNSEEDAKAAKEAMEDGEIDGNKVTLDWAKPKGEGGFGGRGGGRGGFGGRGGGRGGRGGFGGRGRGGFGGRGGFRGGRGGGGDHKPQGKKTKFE

| Binder | percent lower binding to TNF-a than the parental VHH (human recombinant TNF-a) [%] | fold increased nucleolin binding relative to the parental VHH [1] [fold] |
| --- | --- | --- |
| B1 | ~40 | 2 |
| B2 | ~40 | 3 |
| B3 | ~40 | 2 |
| B4 | ~40 | 3 |
